Laboratory results reported in PMC11513070.

Key:
[1] = western blot of total lysates, HEK293T; details: glycan lost; control: wild type SPPL2c-myc
[2] = cell-based cleavage assay, western blot; details: glycan lost
[3] = immunofluorescence of HO-1 ICD nuclear translocation, HeLa; details: glycan lost; control: wild type SPPL2c-myc

| Protein | expression_or_secretion [1] | enzymatic_activity ([2]; control: wild type SPPL2c-myc) | enzymatic_activity [3] | enzymatic_activity ([2]; control: wild type SPP-myc) |
| --- | --- | --- | --- | --- |
| SPPL2c isoform A: N106A (protein) parent chain: MACLGSLHPLGSLLLLFLLLLLSPEARGEYGLVRVVSKNWSKDYCVLYSSDYVNLPRDLHHAPLLSLHDGTKTPWCPDEDSFHQAQDSSPRQRPLHQTTTMVTRGNCSFYAKGWLAQDQGAQGLLIVSRARNQQCSDTISKPQDPSKPWPALTIPVAVLRYTDMLDIVSHTYGDTDVRVAMFAPLEPVTDYNMAIIFILAVGTVAAGGYWAGLMEANKLQRRQAQRGGGLGGHNQQQTVAAERSQRAWEDDDFEDAPMDFTPAMTGAVVTMSCSIMILLYFFYDCFVYVMIGIFSLGASTGLYSCLAPILCHLPLWRYQWVLPGQRVSVTWPLLLLAGLCAMVTVLWVIHRNEDHWAWLLQDTLGVAYCLFVLRRVRLPTFKNCTLFLLALLAFDVFFVFITPLFTKTGESIMVEVASGPADSSSHERLPMVLKVPRLSFSALTLCNQPFSILGFGDIVVPGFLVAYCHRFDMQVQSRQVYYMACTVAYAVGLLVTFVAMILMQMGQPALLYLVSSTLLTSLAVATCRQEFTLFWTGQGRAKIPAEPVAQPCIASAVGSKMKLEDAKDSRTTNRFEQAVDGESGDLESSTGDDMAEMVTLSEDEATSPEGHSESSEGWSDTNLDPNELPSGSPMALEAMLIPLIQPIPHPSELGHIRTQSRVHDSSLPWMGLHKRKGLKVKKSMSAQAPL | decreases | abolishes | abolishes | – |
| SPP: N10/20A (protein) parent chain: MDSAVSDPHNGSAEAGTPANGTTRPPSTPEGIALAYGSLLLMALLPIFFGALRSVRCARGKSSSDMPETITSRDAARFPIIASCTLLGLYLFFKIFSQEYINLLLSMYFFVLGILALSHTISPFMNKFFPANFPNRQYQLLFTQGSGENKEEIINYEFDTKDLVCLGLSSVVGVWYLLRKHWIANNLFGLAFSLNGVELLHLNNVSTGCILLGGLFIYDIFWVFGTNVMVTVAKSFEAPIKLVFPQDLLEKGLEADNFAMLGLGDIVIPGIFIALLLRFDISLKKNTHTYFYTSFAAYIFGLGLTIFIMHIFKHAQPALLYLVPACIGFPVLVALAKGEVAEMFSYEESNPKDPAAETESKEESTEASASKRLEKKEK | – | – | – | no change |
